Source: patent US20160347807A1, “TARGETING P53 AND ITS DNA-BINDING DOMAIN” (UNIVERSITY OF UTAH RESEARCH DOUNDATION, priority 2014, published 2016)
Entries after “also recorded” stand apart in the source; their conditions may differ.

Tests used:
Assay type in all cases: cell-based, human
SKOV-3 cells = assay: 7-AAD assay in SKOV-3 cells
Description: (§1) Transfected T47D, H1373, SKOV-3 and HeLa cells were pelleted and re-suspended in 500 μL PBS (Invitrogen) containing 1 μM 7-aminoactinomycin D (7-AAD) (Invitrogen) for 30 min prior to analysis. T47D and H1373 cells were analyzed 48 h after transfection, while SKOV-3 and HeLa cells were analyzed 24 h after transfection (time points optimized empirically). Only EGFP positive cells were assayed using the FACS Canto-II (BD-BioSciences) with FACS Diva software as previously. EGFP and 7-AAD were excited at 488 nm, and detected at 507 nm and 660 nm, respectively. Independent transfections of each construct were assayed three times (n=3). The highest value (EGFP positive cells stained with 7-AAD) was set at 100%, and the lowest at 0% (relative 7-AAD) as previously.

T47D cells [1] = assay: 7-AAD assay in T47D cells; conditions: 48 h after transfection, EGFP positive cells only
Description: (§2) Transfected T47D, MCF-7, MDA-MB-231, HeLa and H1373 cells were pelleted and resuspended in 500 μL PBS (Invitrogen) containing 1 μM 7-aminoactinomycin D (7-AAD) (Invitrogen) for 30 min prior to analysis following the recommended protocol from the manufacturer. The assay was performed 48 h after transfection for T47D, MCF-7 and H1373 and 24 h after transfection for MDA-MB-231 and HeLa. Only EGFP positive cells were analyzed by using the FACS Canto-II (BD-BioSciences) with FACS Diva software. EGFP and 7-AAD were excited with the 488 nm laser, and were detected at 507 nm and 660 nm, respectively. Independent transfections of each construct were tested three times (n=3).
as §1

H1373 cells = assay: 7-AAD assay in H1373 cells; conditions: H1373 (p53 null), 48 h after transfection
Description: as §2, §1

HeLa cells = assay: 7-AAD assay in HeLa cells; conditions: 24 h after transfection
Description: as §2, §1

T47D cells [2] = assay: Annexin V assay in T47D cells; conditions: 48 h after transfection
Description: 48 h after transfection, T47D cells were pelleted and resuspended in 400 μL of annexin-V binding buffer (Invitrogen) and incubated with 5 μL of annexin-APC (annexin-V conjugated to allophycocyanin, Invitrogen) for 15 min as before. Only transfected cells were analyzed as mentioned in 7-AAD assay. EGFP and APC were excited at 488 nm and 635 nm wavelengths, respectively and detected at their corresponding 507 nm and 660 nm wavelengths. Independent transfections of each construct were tested three times (n=3).

T47D cells [3] = assay: Rescue experiment using BFP-Bcl-XL (7-AAD) in T47D cells; conditions: 48 h after transfection, Bcl-XL overexpression
Description: T47D cells were co-transfected with 1 pmol of EGFP constructs and 1 pmol of BFP-Bcl-XL (BFP tag is necessary for gating Bcl-XL transfected cells). 48 h after transfection the 7-AAD assay was performed as described above. FACSCanto-II (BD-BioSciences) and FACSDiva software were used for EGFP and BFP gating. Excitation was set at 488 nm, and detected at 507 nm and 660 nm for EGFP and 7-AAD, respectively. BFP was excited at 405 nm and detected at 457 nm. Independent transfections of each construct were tested three times (n=3).

T47D cells [4] = assay: TUNEL assay in T47D cells; conditions: 48 h after transfection
Description: T47D cells were harvested 48 h after transfection. In situ Death Detection Kit, TMR red (Roche, Mannheim, Germany) was used following manufacturer's recommendations as before. Cells were resuspended in PBS (Invitrogen) and analyzed via the FACSAria-II (BD-Biosciences, University of Utah Core Facility). EGFP and TMR red were excited at 488 nm and 563 nm, respectively, and FACSDiva software was used to analyze the data. Independent transfections of each construct were tested three times (n=3).

For “DBD-BakMTS: DBD of p53 cloned between EGFP and Bak MTS”, the “7-AAD positive cells (late apoptosis)” value (SKOV-3 cells; SKOV-3 (p53 null), 24 h after transfection) was “significantly higher than their negative control E-BakMTS; also recorded: trending higher; also recorded: induces late stage apoptosis”, the “apoptosis in SKOV-3 (assay not stated at place)” value (SKOV-3 cells; ovarian cancer cells SKOV-3) was “triggers apoptosis” and the “7-AAD positive cells (late apoptosis)” value (T47D cells [1]) was “significantly higher apoptosis compared to cells transfected with MTS negative controls; also recorded: trending higher; also recorded: induces robust apoptosis, similar to, or greater than wt p53 with MTS; also recorded: outperformed DBD-BaxMTS; also recorded: induces apoptosis in all 3 cell lines”. The “7-AAD positive cells (late apoptosis)” value (H1373 cells) was “statistically higher from their negative control E-BakMTS; also recorded: significantly higher activities compared to their positive controls; also recorded: induces robust apoptosis, similar to, or greater than wt p53 with MTS; also recorded: outperformed DBD-BaxMTS; also recorded: induces apoptosis in all 3 cell lines” and the “7-AAD positive cells (late apoptosis)” value (HeLa cells) was “significant from their corresponding negative controls; also recorded: trend of higher apoptotic activity in HeLa cells compared to p53-BakMTS; also recorded: induces robust apoptosis, similar to, or greater than wt p53 with MTS; also recorded: outperformed DBD-BaxMTS; also recorded: induces apoptosis in all 3 cell lines”.

With “DBDK120E-BakMTS: DBD-BakMTS with K120E mutation” the “7-AAD positive cells (late apoptosis)” value (T47D cells [1]) was “not statistically significant from the negative control E-BakMTS”.

“p53K120E-BakMTS: p53-BakMTS with K120E mutation” was tested, and the “7-AAD positive cells (late apoptosis)” value (T47D cells [1]) was “not statistically significant from the negative control E-BakMTS”.

In the case of “p53m6-BakMTS: p53-BakMTS with K120A, R248A, R273A, R280A, E285A, E287A mutations”, the “7-AAD positive cells (late apoptosis)” value (T47D cells [1]) is reported as “not significantly different from their negative control; also recorded: complete loss in apoptotic activity compared to their non-mutated controls”.

For “p53ΔC-XL: EGFP, p53ΔC (amino acids 1-322, lacks the C-terminus) and XL MTS”, the “7-AAD positive cells (late apoptosis)” value (T47D cells [1]) was “statistically higher than the negative control E-XL; also recorded: not statistically significant from each other”.

B1: TD-XL: EGFP, tetramerization domain of p53, XL MTS (protein)
chain: LDGEYFTLQIRGRERFEMFRELNEALELKDAQAGRKGQERFNRWFLTGMTVAGVVLLGSLFSRK
modifications: left off: large carriers
notes: EGFP, tetramerization domain of p53, XL MTS
In the case of B1, the “Annexin V positive cells (apoptotic potential)” value (T47D cells [2]) is reported as “not statistically significant from the negative control”, the “apoptotic activity (7-AAD) on cotransfection of BFP-Bcl-XL (rescue)” value (T47D cells [3]) is reported as “reduction in apoptotic potential” and the “TUNEL positive cells (DNA fragmentation)” value (T47D cells [4]) is reported as “not statistically different from the negative control; also recorded: statistically significantly lower than p53-XL”. For the same molecule, the “7-AAD positive cells (late apoptosis)” value (T47D cells [1]) was “statistically different from the negative controls but is also significantly lower than p53-XL”.

B2: DBDm6-BakMTS: DBD-BakMTS with K120A, R248A, R273A, R280A, E285A, E287A mutations (protein)
chain: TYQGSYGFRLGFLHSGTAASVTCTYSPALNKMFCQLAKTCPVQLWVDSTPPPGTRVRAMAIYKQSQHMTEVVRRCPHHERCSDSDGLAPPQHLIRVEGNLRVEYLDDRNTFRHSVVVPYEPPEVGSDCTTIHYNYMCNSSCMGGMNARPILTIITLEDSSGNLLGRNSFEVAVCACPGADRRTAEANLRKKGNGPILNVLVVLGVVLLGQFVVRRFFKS
modifications: left off: large carriers
notes: DBD-BakMTS with K120A, R248A, R273A, R280A, E285A, E287A mutations
For B2, the “7-AAD positive cells (late apoptosis)” value (T47D cells [1]) was “not significantly different from their negative control; also recorded: complete loss in apoptotic activity compared to their non-mutated controls”.

B3: PRD-XL: EGFP, proline-rich domain of p53, XL MTS (protein)
chain: APRMPEAAPPVAPAPAAPTPAAPAPAPSWPLSSSVRKGQERFNRWFLTGMTVAGVVLLGSLFSRK
modifications: left off: large carriers
notes: EGFP, proline-rich domain of p53, XL MTS
B3 was tested, and the “Annexin V positive cells (apoptotic potential)” value (T47D cells [2]) was “not statistically significant from the negative control”, the “apoptotic activity (7-AAD) on cotransfection of BFP-Bcl-XL (rescue)” value (T47D cells [3]) was “not altered by Bcl-XL overexpression” and the “TUNEL positive cells (DNA fragmentation)” value (T47D cells [4]) was “not statistically different from the negative control; also recorded: statistically significantly lower than p53-XL”. The “7-AAD positive cells (late apoptosis)” value (T47D cells [1]) was “not statistically significant from the negative control E-XL indicating no apoptotic activity; also recorded: statistically significantly lower than p53-XL” and the “7-AAD positive cells (late apoptosis)” value (HeLa cells) was “statistically significant from p53-XL”.
